T1: DHX36 (RHAU) (UniProt Q9H2U1 1-1008)
T1 sequence: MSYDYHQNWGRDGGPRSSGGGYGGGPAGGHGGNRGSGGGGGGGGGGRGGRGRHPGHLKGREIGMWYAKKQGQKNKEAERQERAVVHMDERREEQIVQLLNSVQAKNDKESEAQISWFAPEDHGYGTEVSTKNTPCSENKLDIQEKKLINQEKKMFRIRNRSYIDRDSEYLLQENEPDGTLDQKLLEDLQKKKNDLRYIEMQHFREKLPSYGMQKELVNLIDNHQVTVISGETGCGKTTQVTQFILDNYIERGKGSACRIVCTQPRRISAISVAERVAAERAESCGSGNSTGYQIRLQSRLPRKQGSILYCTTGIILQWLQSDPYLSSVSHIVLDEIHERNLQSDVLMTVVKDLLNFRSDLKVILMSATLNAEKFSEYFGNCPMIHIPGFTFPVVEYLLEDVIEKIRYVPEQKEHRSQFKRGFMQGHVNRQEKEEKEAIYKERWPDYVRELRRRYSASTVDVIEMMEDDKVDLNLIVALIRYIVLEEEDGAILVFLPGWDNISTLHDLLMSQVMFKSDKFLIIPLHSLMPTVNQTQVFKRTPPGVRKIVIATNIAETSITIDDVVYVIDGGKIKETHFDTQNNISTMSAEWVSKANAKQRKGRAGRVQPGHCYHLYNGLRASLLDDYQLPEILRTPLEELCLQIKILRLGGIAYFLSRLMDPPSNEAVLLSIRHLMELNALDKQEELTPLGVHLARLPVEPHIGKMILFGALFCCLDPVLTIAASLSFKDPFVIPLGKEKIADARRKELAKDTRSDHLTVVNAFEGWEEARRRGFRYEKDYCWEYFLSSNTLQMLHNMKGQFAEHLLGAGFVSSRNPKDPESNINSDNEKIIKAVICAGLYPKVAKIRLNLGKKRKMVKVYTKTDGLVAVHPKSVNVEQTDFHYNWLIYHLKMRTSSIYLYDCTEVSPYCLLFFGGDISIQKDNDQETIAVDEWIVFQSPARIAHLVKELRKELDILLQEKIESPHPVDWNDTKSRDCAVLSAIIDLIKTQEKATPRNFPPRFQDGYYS

B1: FAM_Gnai2 rG4 WT (structured_RNA)
RNA: GGGCCGGCGGUGGGAGCGGAGUGGGUCGGGCGGGG
B2: FAM_Gnai2 rG4 Mut (ssRNA)
RNA: GAGCCGGCGGUGAGAGCGGAGUGAGUCGAACGAAG
B3: FAM_rG4_A_PEG2 (FAM_rG4_A) (structured_RNA)
RNA: GGGUUGCGGAGGGUGGGCCU
modifications: 5'-hexynyl clicked to AHPC-PEG2 (VHL ligand)
B4: FAM_dG4_A (T95-2T) (structured_DNA)
DNA: TTGGGTGGGTGGGTGGGT
modifications: 5'-hexynyl clicked to AHPC-PEG2
B5: FAM_APP rG4 WT (structured_RNA)
RNA: CGGGGCGGGUGGGGAGGGGU
modifications: printed with T although called rG4

Target: T1, DHX36 (RHAU)
Assay: MST; EMSA and MST: 25 mM Tris-HCl pH 7.5, 150 mM KCl, 1 mM MgCl2, 37 C 30 min; 30 nM (EMSA) or 40 nM (MST) FAM-oligo; EMSA gel 10% native PAGE, 0.5x TBE, 4 C
Conditions: protein: recombinant; for Kd: G4

Row | Binder | Kd (label: 5'-FAM) | Kd (label: 3'-FAM) | other results
1 | B1 | 37.9 ± 3.6 nM |  | 
2 | B2 |  |  | binding result (label: 5'-FAM, non-G4): no binding
3 | B3 |  | 79.7 ± 17.3 nM | 
4 | B4 |  | 303 ± 55 nM | 
5 | B5 | 19.7 ± 2.3 nM |  | 
